Results on four molecules are retold here after patent US20190330271A1 (HANGZHOU WISDOM PANACEA BIOLOGICS, published 2019).

For the assay, the target named is T1, Aβ42 oligomers (UniProt P05067 672-713).
T1 construct: domain: Aβ42; Oligomeric state
Description: ELISA on coated Aβ42 oligomers, His-tagged polypeptide at 1 µg per well. A general note: An ELISA detects its analyte on a solid surface through an enzyme-linked reagent.
Description: 100 μL of monomers, oligomers or fibers of Aβ42, PrP, amylin, insulin or lysozyme were respectively coated onto a 96-well ELISA microplate at 1 μg/well, BSA was used as a negative control. The plate were then placed at 37° C. for 2 h, blocked with 200 μL/well of 3% BSA at 37° C. for 2 h, and washed 3 times with PBS. 100 μL of histidine-tagged ZR polypeptide solution was added, and the plate was incubated at room temperature for 1 h, and then washed 3 times with PBS containing 0.1% Tween-20. 100 μL of HRP-linked antibody 9E10 which can recognize the histidine tag was added to each well, and the plate was incubated at room temperature for 1 h, and then washed 3 times with PBS containing 0.1% Tween-20. 100 μL of TMB was added to each well, and the plate was placed at 37° C. for 20 min. Then, 50 μL of 1 mmol/L sulfuric acid was added to each well to terminate the reaction, and OD450 values were measured using a microplate reader. The above procedure was repeated for 3 times under the same condition.

T1 sequence (P05067 672-713 limits assumed): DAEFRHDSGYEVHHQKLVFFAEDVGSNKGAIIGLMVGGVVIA

B1: ZR + N (SEQ ID NO: 5), histidine-tagged (peptide)
peptide: SFFNNNKR
notes: ZR derivative with one more Asn; not shown: histidine tag
Molecule B1 displayed an OD450 of 0.54.

B2: ZR4-ΔN (SEQ ID NO: 3), histidine-tagged (peptide)
peptide: SFFNKR
notes: ZR derivative with one Asn deleted; not shown: histidine tag
In turn, B2 registered an OD450 of 0.49.

B3: ZR + K (SEQ ID NO: 6), histidine-tagged (peptide)
peptide: SFFNNKRK
notes: ZR derivative with a Lys added after Arg7; not shown: histidine tag
With B3, the OD450 came to 0.56.
The result for SAFQNKR (not shown: histidine tag) [ZR4-FN/AQ (SEQ ID NO: 4), histidine-tagged] reads 0.47.
